Assay results as given in paper doi:10.1101/839027v1.

Substrate: O=[N+]([O-])c1ccc(O[C@@H]2O[C@H](CO)[C@@H](O)[C@H](O)[C@H]2O)cc1
Test: purified protein

Protein	Km [mM]	kcat [s⁻¹]
β-glucosidase B (BglB) (Paenibacillus polymyxa) (protein) MSENTFIFPATFMWGTSTSSYQIEGGTDEGGRTPSIWDTFCQIPGKVIGGDCGDVACDHFHHFKEDVQLMKQLGFLHYRFSVAWPRIMPAAGIINEEGLLFYEHLLDEIELAGLIPMLTLYHWDLPQWIEDEGGWTQRETIQHFKTYASVIMDRFGERINWWNTINEPYCASILGYGTGEHAPGHENWREAFTAAHHILMCHGIASNLHKEKGLTGKIGITLNMEHVDAASERPEDVAAAIRRDGFINRWFAEPLFNGKYPEDMVEWYGTYLNGLDFVQPGDMELIQQPGDFLGINYYTRSIIRSTNDASLLQVEQVHMEEPVTDMGWEIHPESFYKLLTRIEKDFSKGLPILITENGAAMRDELVNGQIEDTGRHGYIEEHLKACHRFIEEGGQLKGYFVWSFLDNFEWAWGYSKRFGIVHINYETQERTPKQSALWFKQMMAKNGF	6.5 ± 0.2	17.83 ± 0.167
β-glucosidase B (BglB) (Paenibacillus polymyxa; T431I) (protein) MSENTFIFPATFMWGTSTSSYQIEGGTDEGGRTPSIWDTFCQIPGKVIGGDCGDVACDHFHHFKEDVQLMKQLGFLHYRFSVAWPRIMPAAGIINEEGLLFYEHLLDEIELAGLIPMLTLYHWDLPQWIEDEGGWTQRETIQHFKTYASVIMDRFGERINWWNTINEPYCASILGYGTGEHAPGHENWREAFTAAHHILMCHGIASNLHKEKGLTGKIGITLNMEHVDAASERPEDVAAAIRRDGFINRWFAEPLFNGKYPEDMVEWYGTYLNGLDFVQPGDMELIQQPGDFLGINYYTRSIIRSTNDASLLQVEQVHMEEPVTDMGWEIHPESFYKLLTRIEKDFSKGLPILITENGAAMRDELVNGQIEDTGRHGYIEEHLKACHRFIEEGGQLKGYFVWSFLDNFEWAWGYSKRFGIVHINYETQERIPKQSALWFKQMMAKNGF	5.1 ± 0.1	15.3 ± 0.717
β-glucosidase B (BglB) (Paenibacillus polymyxa; M319C) (protein) MSENTFIFPATFMWGTSTSSYQIEGGTDEGGRTPSIWDTFCQIPGKVIGGDCGDVACDHFHHFKEDVQLMKQLGFLHYRFSVAWPRIMPAAGIINEEGLLFYEHLLDEIELAGLIPMLTLYHWDLPQWIEDEGGWTQRETIQHFKTYASVIMDRFGERINWWNTINEPYCASILGYGTGEHAPGHENWREAFTAAHHILMCHGIASNLHKEKGLTGKIGITLNMEHVDAASERPEDVAAAIRRDGFINRWFAEPLFNGKYPEDMVEWYGTYLNGLDFVQPGDMELIQQPGDFLGINYYTRSIIRSTNDASLLQVEQVHCEEPVTDMGWEIHPESFYKLLTRIEKDFSKGLPILITENGAAMRDELVNGQIEDTGRHGYIEEHLKACHRFIEEGGQLKGYFVWSFLDNFEWAWGYSKRFGIVHINYETQERTPKQSALWFKQMMAKNGF	6.0 ± 0.5	15 ± 0.517
β-glucosidase B (BglB) (Paenibacillus polymyxa; K337D) (protein) MSENTFIFPATFMWGTSTSSYQIEGGTDEGGRTPSIWDTFCQIPGKVIGGDCGDVACDHFHHFKEDVQLMKQLGFLHYRFSVAWPRIMPAAGIINEEGLLFYEHLLDEIELAGLIPMLTLYHWDLPQWIEDEGGWTQRETIQHFKTYASVIMDRFGERINWWNTINEPYCASILGYGTGEHAPGHENWREAFTAAHHILMCHGIASNLHKEKGLTGKIGITLNMEHVDAASERPEDVAAAIRRDGFINRWFAEPLFNGKYPEDMVEWYGTYLNGLDFVQPGDMELIQQPGDFLGINYYTRSIIRSTNDASLLQVEQVHMEEPVTDMGWEIHPESFYDLLTRIEKDFSKGLPILITENGAAMRDELVNGQIEDTGRHGYIEEHLKACHRFIEEGGQLKGYFVWSFLDNFEWAWGYSKRFGIVHINYETQERTPKQSALWFKQMMAKNGF	4.3 ± 0.1	13.2 ± 0.667
